The source of these data is paper PMC11009412, “Pathogenic mutations of human phosphorylation sites affect protein–protein interactions” (Nature Communications, 2024).

B1: NACC1 (protein, UniProt Q96RE7 1-527, looked up)
Nucleus accumbens-associated …: MAQTLQMEIPNFGNSILECLNEQRLQGLYCDVSVVVKGHAFKAHRAVLAASSSYFRDLFNNSRSAVVELPAAVQPQSFQQILSFCYTGRLSMNVGDQFLLMYTAGFLQIQEIMEKGTEFFLKVSSPSCDSQGLHAEEAPSSEPQSPVAQTSGWPACSTPLPLVSRVKTEQQESDSVQCMPVAKRLWDSGQKEAGGGGNGSRKMAKFSTPDLAANRPHQPPPPQQAPVVAAAQPAVAAGAGQPAGGVAAAGGVVSGPSTSERTSPGTSSAYTSDSPGSYHNEEDEEEDGGEEGMDEQYRQICNMYTMYSMMNVGQTAEKVEALPEQVAPESRNRIRVRQDLASLPAELINQIGNRCHPKLYDEGDPSEKLELVTGTNVYITRAQLMNCHVSAGTRHKVLLRRLLASFFDRNTLANSCGTGIRSSTNDPRRKPLDSRVLHAVKYYCQNFAPNFKESEMNAIAADMCTNARRVVRKSWMPKVKVLKAEDDAYTTFISETGKIEPDMMGVEHGFETASHEGEAGPSAEALQ
B2: PPP1R10 (protein, UniProt Q96QC0 1-940, looked up)
Serine/threonine-protein …: MGSGPIDPKELLKGLDSFLNRDGEVKSVDGISKIFSLMKEARKMVSRCTYLNILLQTRSPEILVKFIDVGGYKLLNNWLTYSKTTNNIPLLQQILLTLQHLPLTVDHLKQNNTAKLVKQLSKSSEDEELRKLASVLVSDWMAVIRSQSSTQPAEKDKKKRKDEGKSRTTLPERPLTEVKAETRAEEAPEKKREKPKSLRTTAPSHAKFRSTGLELETPSLVPVKKNASTVVVSDKYNLKPIPLKRQSNVAAPGDATPPAEKKYKPLNTTPNATKEIKVKIIPPQPMEGLGFLDALNSAPVPGIKIKKKKKVLSPTAAKPSPFEGKTSTEPSTAKPSSPEPAPPSEAMDADRPGTPVPPVEVPELMDTASLEPGALDAKPVESPGDPNQLTRKGRKRKSVTWPEEGKLREYFYFELDETERVNVNKIKDFGEAAKREILSDRHAFETARRLSHDNMEEKVPWVCPRPLVLPSPLVTPGSNSQERYIQAEREKGILQELFLNKESPHEPDPEPYEPIPPKLIPLDEECSMDETPYVETLEPGGSGGSPDGAGGSKLPPVLANLMGSMGAGKGPQGPGGGGINVQEILTSIMGSPNSHPSEELLKQPDYSDKIKQMLVPHGLLGPGPIANGFPPGGPGGPKGMQHFPPGPGGPMPGPHGGPGGPVGPRLLGPPPPPRGGDPFWDGPGDPMRGGPMRGGPGPGPGPYHRGRGGRGGNEPPPPPPPFRGARGGRSGGGPPNGRGGPGGGMVGGGGHRPHEGPGGGMGNSSGHRPHEGPGGGMGSGHRPHEGPGGSMGGGGGHRPHEGPGGGISGGSGHRPHEGPGGGMGAGGGHRPHEGPGGSMGGSGGHRPHEGPGHGGPHGHRPHDVPGHRGHDHRGPPPHEHRGHDGPGHGGGGHRGHDGGHSHGGDMSNRPVCRHFMMKGNCRYENNCAFYHPGVNGPPLP
B3: SUGP1 (protein, UniProt Q8IWZ8 1-645, looked up)
SURP and G-patch …: MSLKMDNRDVAGKANRWFGVAPPKSGKMNMNILHQEELIAQKKREIEAKMEQKAKQNQVASPQPPHPGEITNAHNSSCISNKFANDGSFLQQFLKLQKAQTSTDAPTSAPSAPPSTPTPSAGKRSLLISRRTGLGLASLPGPVKSYSHAKQLPVAHRPSVFQSPDEDEEEDYEQWLEIKVSPPEGAETRKVIEKLARFVAEGGPELEKVAMEDYKDNPAFAFLHDKNSREFLYYRKKVAEIRKEAQKSQAASQKVSPPEDEEVKNLAEKLARFIADGGPEVETIALQNNRENQAFSFLYEPNSQGYKYYRQKLEEFRKAKASSTGSFTAPDPGLKRKSPPEALSGSLPPATTCPASSTPAPTIIPAPAAPGKPASAATVKRKRKSRWGPEEDKVELPPAELVQRDVDASPSPLSVQDLKGLGYEKGKPVGLVGVTELSDAQKKQLKEQQEMQQMYDMIMQHKRAMQDMQLLWEKAVQQHQHGYDSDEEVDSELGTWEHQLRRMEMDKTREWAEQLTKMGRGKHFIGDFLPPDELEKFMETFKALKEGREPDYSEYKEFKLTVENIGYQMLMKMGWKEGEGLGSEGQGIKNPVNKGTTTVDGAGFGIDRPAELSKEDDEYEAFRKRMMLAYRFRPNPLNNPRRPYY
B4: NOL8 (protein, UniProt Q76FK4 1-1167, looked up)
Nucleolar protein 8: MKVNRETKRLYVGGLSQDISEADLQNQFSRFGEVSDVEIITRKDDQGNPQKVFAYINISVAEADLKKCMSVLNKTKWKGGTLQIQLAKESFLHRLAQEREAAKAKKEESTTGNANLLEKTGGVDFHMKAVPGTEVPGHKNWVVSKFGRVLPVLHLKNQHKRKIIKYDPSKYCHNLKKIGEDFSNTIPISSLTWELEGGNDPMSKKRRGEFSDFHGPPKKIIKVQKDESSTGSLAMSTRPRRVIERPPLTQQQAAQKRTCDSITPSKSSPVPVSDTQKLKNLPFKTSGLETAKKRNSISDDDTDSEDELRMMIAKEENLQRTTQPSINESESDPFEVVRDDFKSGVHKLHSLIGLGIKNRVSCHDSDDDIMRNDREYDSGDTDEIIAMKKNVAKVKNSTEFSQMEKSTKKTSFKNRENCELSDHCIKLQKRKSNVESALSHGLKSLNRKSPSHSSSSEDADSASELADSEGGEEYNAMMKNCLRVNLTLADLEQLAGSDLKVPNEDTKSDGPETTTQCKFDRGSKSPKTPTGLRRGRQCIRPAEIVASLLEGEENTCGKQKPKENNLKPKFQAFKGVGCLYEKESMKKSLKDSVASNNKDQNSMKHEDPSIISMEDGSPYVNGSLGEVTPCQHAKKANGPNYIQPQKRQTTFESQDRKAVSPSSSEKRSKNPISRPLEGKKSLSLSAKTHNIGFDKDSCHSTTKTEASQEERSDSSGLTSLKKSPKVSSKDTREIKTDFSLSISNSSDVSAKDKHAEDNEKRLAALEARQKAKEVQKKLVHNALANLDGHPEDKPTHIIFGSDSECETEETSTQEQSHPGEEWVKESMGKTSGKLFDSSDDDESDSEDDSNRFKIKPQFEGRAGQKLMDLQSHFGTDDRFRMDSRFLETDSEEEQEEVNEKKTAEEEELAEEKKKALNVVQSVLQINLSNSTNRGSVAAKKFKDIIHYDPTKQDHATYERKRDDKPKESKAKRKKKREEAEKLPEVSKEMYYNIAMDLKEIFQTTKYTSEKEEGTPWNEDCGKEKPEEIQDPAALTSDAEQPSGFTFSFFDSDTKDIKEETYRVETVKPGKIVWQEDPRLQDSSSEEEDVTEETDHRNSSPGEASLLEKETTRFFFFSKNDERLQGSDLFWRGVGSNMSRNSWEARTTNLRMDCRKKHKDAKRKMKPK
B5: C19orf43 (protein, UniProt Q9BQ61 1-176, looked up)
Telomerase RNA component …: MAARGRRAEPQGREAPGPAGGGGGGSRWAESGSGTSPESGDEEVSGAGSSPVSGGVNLFANDGSFLELFKRKMEEEQRQRQEEPPPGPQRPDQSAAAAGPGDPKRKGGPGSTLSFVGKRRGGNKLALKTGIVAKKQKTEDEVLTSKGDAWAKYMAEVKKYKAHQCGDDDKTRPLVK

One experiment relates to BirA*-FLAG-GATAD1 variants in Flp-In-293 cells. The experiment is described as follows: BioID proximity labelling of full-length GATAD1 variants (SILAC). In kind it is cell-based, human. As to conditions: GATAD1 WT vs S102P, forward experiment (label swap performed, sign inverted against the H/L ratio), log2 of normalized H/L ratio, significant proteins only. The source says:
The GATAD1 gene variants were ordered in a pTwist ENTR Kozak vector from Twist Bioscience. The genes were then transferred to a pDEST_pcDNA5_BirA_FLAG_Nterm vector[97] using the Gateway Clonase II system (Thermo Fisher Scientific). The resulting vectors, pEXPR_GATAD1-WT_N-term_BirA_FLAG, pEXPR_GATAD1-S102P_N-term_BirA_FLAG, pEXPR_GATAD1-S102D_N-term_BirA_FLAG, and pEXPR_GATAD1-S102A_N-term_BirA_FLAG, were used to generate tetracycline-inducible stable Flp-In^TM-293 T-REx cells. A 6-well plate was co-transfected with 0.5 µg of the pEXPR plasmid and 1 µg of the pOG44 Flp-recombinase expression vector (Thermo Fisher Scientific) using 4.5 µg of PEI (Polysciences) as a transfection reagent. The following day, the cells were trypsinized and transferred to a 10 cm dish containing DMEM supplemented with 10% FCS and 200 µg/ml hygromycin B (Invivogen) for selection. The cells were cultured for approximately 18 days with media exchange every 3 days until visible colonies were observed. After around 18 days, the colonies were trypsinized and transferred to another 10 cm dish for further characterization and experiments.
Stable Flp-In^TM-293 cell lines expressing GATAD1 variants were cultured using SILAC light (Lys0, Arg0) and SILAC heavy (Lys8, Arg10) media, as explained in the cell culture section. After full labeling, cells were split into 15 cm dishes and were treated with 1 μg/mL tetracycline for 24 h to induce the expression of GATAD1. After the induction period, cells were incubated with 50 μM biotin overnight for proximity biotinylation. As a control, wild-type GATAD1 cells, without biotin or tetracycline addition, were used. Samples were multiplexed, as shown in Supplementary Fig. 41A with both forward and reverse label swap (n = 2). Cells were then lysed in lysis buffer (50 mM Tris-HCl pH 7.5, 150 mM NaCl, 1% Triton X-100, 1 mM EDTA, 1 mM EGTA, 0.1% SDS) with freshly added protease inhibitors and 1% sodium deoxycholate. To digest the excess DNA, 1 μl of Benzonase was added, and the samples were incubated for 20 min at 37 °C. Biotinylated proteins were enriched for 3 h at 4 °C using streptavidin-sepharose beads (GE Cat# 17-5113-01). Beads were pre-washed twice with 0.01% BSA and twice with lysis buffer. After enrichment, the beads were washed one time with lysis buffer, two times with washing buffer (50 mM HEPES-KOH pH 8.0, 100 mM KCl, 10% glycerol, 2 mM EDTA, 0.1% NP-40), and six times with 50 mM ammonium bicarbonate. Beads were resuspended in ammonium bicarbonate, and an on-bead protein digest with 1 μg of trypsin followed overnight. The next day, the digested proteins were transferred to a fresh tube and were incubated with 10 mM DTT for 30 min at 37 °C and with 55 mM iodoacetamide for 20 min at 37 °C in the dark. Samples were desalted with StageTips.
Peptides were separated using reversed-phase liquid chromatography (EASY nLC II 1200, Thermo Fisher Scientific) with self-made C18 microcolumns (20 cm long) packed with ReproSil-Pur C18-AQ 1.9 μm resin (Dr. Maisch, cat# r119.aq.0001). The chromatography system was coupled online to the electrospray ion source (Proxeon) of an Orbitrap Exploris 480 mass spectrometer (Thermo Fisher Scientific). The mobile phase consisted of buffer A (0.1% formic acid and 5% acetonitrile) and buffer B (0.1% formic acid and 80% acetonitrile). Peptides were eluted using a gradient with increasing concentrations of buffer B over 110 minutes, at a flow rate of 250 nl/min. Mass spectrometry data was acquired in data-dependent mode with settings for one full scan (resolution: 60,000; m/z range: 350–1600; normalized AGC target: 300%; maximum injection time: 10 ms), followed by top 20 MS/MS scans using higher-energy collisional dissociation (resolution: 15,000; m/z range: 200–2000; normalized AGC target: 100%; maximum injection time: 120 ms; isolation width: 1.3 m/z; normalized collision energy: 28%).
Raw files were analyzed with MaxQuant, version 2.0.3.0. […]
Consider B1, for which the Log2_Ratio.H.L.normalized.WT_S102P_forward is 1.531.

As to B2, the Log2_Ratio.H.L.normalized.WT_S102P_forward was 1.288.

For the molecule B3, the Log2_Ratio.H.L.normalized.WT_S102P_forward is listed as 1.6946.

With B4, the Log2_Ratio.H.L.normalized.WT_S102P_forward is reported as 1.703.

Turning to B5, the Log2_Ratio.H.L.normalized.WT_S102P_forward is 2.125.

The experiment is the same for the next values; noted with them: GATAD1 WT vs S102P, forward experiment, normalized H/L ratio, significant proteins only.
In the case of B1, the Ratio.H.L.normalized.WT_S102P_forward was 0.346.

For the molecule B2, the Ratio.H.L.normalized.WT_S102P_forward was 0.4096.

Turning to B3, the Ratio.H.L.normalized.WT_S102P_forward was found to be 0.3089.

Regarding B4, the Ratio.H.L.normalized.WT_S102P_forward came out at 0.3071.

On to B5, for which the Ratio.H.L.normalized.WT_S102P_forward came out at 0.2293.

Staying with this experiment, now noted: GATAD1 WT vs S102P, reverse experiment, log2 of normalized H/L ratio, significant proteins only.
For B1, the Log2_Ratio.H.L.normalized.WT_S102P_reverse stood at 1.188.

As for B2, the Log2_Ratio.H.L.normalized.WT_S102P_reverse is on record as 1.038.

B3: the Log2_Ratio.H.L.normalized.WT_S102P_reverse is reported as 1.162.

Take B4: the Log2_Ratio.H.L.normalized.WT_S102P_reverse is 1.269.

B5: the Log2_Ratio.H.L.normalized.WT_S102P_reverse is 1.257.

The same experiment, now with this note: GATAD1 WT vs S102P, reverse experiment, normalized H/L ratio, significant proteins only.
For the molecule B1, the Ratio.H.L.normalized.WT_S102P_reverse came out at 2.2785.

For the molecule B2, the Ratio.H.L.normalized.WT_S102P_reverse was 2.0533.

Consider B3, for which the Ratio.H.L.normalized.WT_S102P_reverse came to 2.2378.

For the molecule B4, the Ratio.H.L.normalized.WT_S102P_reverse is recorded as 2.4103.

Turning to B5, the Ratio.H.L.normalized.WT_S102P_reverse was found to be 2.3903.
